Laboratory results published in patent publication US9284543B2, “Neutral active soluble truncated PH20 polypeptides and uses thereof” (Halozyme, Inc., priority 2008, dated 2016).

B1: SPAM1-LKPP: C-terminally truncated human PH20, precursor 472 aa (SEQ ID NO:28), mature 437 aa (SEQ ID NO:80) (protein, listed as Homo sapiens)
chain 1: MGVLKFKHIFFRSFVKSSGVSQIVFTFLLIPCCLTLNFRAPPVIPNVPFLWAWNAPSEFCLGKFDEPLDMSLFSFIGSPRINATGQGVTIFYVDRLGYYPYIDSITGVTVNGGIPQKISLQDHLDKAKKDITFYMPVDNLGMAVIDWEEWRPTWARNWKPKDVYKNRSIELVQQQNVQLSLTEATEKAKQEFEKAGKDFLVETIKLGKLLRPNHLWGYYLFPDCYNHHYKKPGYNGSCFNVEIKRNDDLSWLWNESTALYPSIYLNTQQSPVAATLYVRNRVREAIRVSKIPDAKSPLPVFAYTRIVFTDQVLKFLSQDELVYTFGETVALGASGIVIWGTLSIMRSMKSCLLLDNYMETILNPYIINVTLAAKMCSQVLCQEQGVCIRKNWNSSDYLHLNPDNFAIQLEKGGKFTVRGKPTLEDLEQFSEKFYCSCYSTLSCKEKADVKDTDAVDVCIADGVCIDAFLKPP
chain 2: LNFRAPPVIPNVPFLWAWNAPSEFCLGKFDEPLDMSLFSFIGSPRINATGQGVTIFYVDRLGYYPYIDSITGVTVNGGIPQKISLQDHLDKAKKDITFYMPVDNLGMAVIDWEEWRPTWARNWKPKDVYKNRSIELVQQQNVQLSLTEATEKAKQEFEKAGKDFLVETIKLGKLLRPNHLWGYYLFPDCYNHHYKKPGYNGSCFNVEIKRNDDLSWLWNESTALYPSIYLNTQQSPVAATLYVRNRVREAIRVSKIPDAKSPLPVFAYTRIVFTDQVLKFLSQDELVYTFGETVALGASGIVIWGTLSIMRSMKSCLLLDNYMETILNPYIINVTLAAKMCSQVLCQEQGVCIRKNWNSSDYLHLNPDNFAIQLEKGGKFTVRGKPTLEDLEQFSEKFYCSCYSTLSCKEKADVKDTDAVDVCIADGVCIDAFLKPP
modifications: HuPH20 precursor 1-472; Mature HuPH20 36-472
B2: SPAM1-KPPM: C-terminally truncated human PH20, precursor 473 aa (SEQ ID NO:27), mature 438 aa (SEQ ID NO:79) (protein, listed as Homo sapiens)
chain 1: MGVLKFKHIFFRSFVKSSGVSQIVFTFLLIPCCLTLNFRAPPVIPNVPFLWAWNAPSEFCLGKFDEPLDMSLFSFIGSPRINATGQGVTIFYVDRLGYYPYIDSITGVTVNGGIPQKISLQDHLDKAKKDITFYMPVDNLGMAVIDWEEWRPTWARNWKPKDVYKNRSIELVQQQNVQLSLTEATEKAKQEFEKAGKDFLVETIKLGKLLRPNHLWGYYLFPDCYNHHYKKPGYNGSCFNVEIKRNDDLSWLWNESTALYPSIYLNTQQSPVAATLYVRNRVREAIRVSKIPDAKSPLPVFAYTRIVFTDQVLKFLSQDELVYTFGETVALGASGIVIWGTLSIMRSMKSCLLLDNYMETILNPYIINVTLAAKMCSQVLCQEQGVCIRKNWNSSDYLHLNPDNFAIQLEKGGKFTVRGKPTLEDLEQFSEKFYCSCYSTLSCKEKADVKDTDAVDVCIADGVCIDAFLKPPM
chain 2: LNFRAPPVIPNVPFLWAWNAPSEFCLGKFDEPLDMSLFSFIGSPRINATGQGVTIFYVDRLGYYPYIDSITGVTVNGGIPQKISLQDHLDKAKKDITFYMPVDNLGMAVIDWEEWRPTWARNWKPKDVYKNRSIELVQQQNVQLSLTEATEKAKQEFEKAGKDFLVETIKLGKLLRPNHLWGYYLFPDCYNHHYKKPGYNGSCFNVEIKRNDDLSWLWNESTALYPSIYLNTQQSPVAATLYVRNRVREAIRVSKIPDAKSPLPVFAYTRIVFTDQVLKFLSQDELVYTFGETVALGASGIVIWGTLSIMRSMKSCLLLDNYMETILNPYIINVTLAAKMCSQVLCQEQGVCIRKNWNSSDYLHLNPDNFAIQLEKGGKFTVRGKPTLEDLEQFSEKFYCSCYSTLSCKEKADVKDTDAVDVCIADGVCIDAFLKPPM
modifications: HuPH20 precursor 1-473; Mature HuPH20 36-473
B3: SPAM1-FLKP: C-terminally truncated human PH20, precursor 471 aa (SEQ ID NO:29), mature 436 aa (SEQ ID NO:81) (protein, listed as Homo sapiens)
chain 1: MGVLKFKHIFFRSFVKSSGVSQIVFTFLLIPCCLTLNFRAPPVIPNVPFLWAWNAPSEFCLGKFDEPLDMSLFSFIGSPRINATGQGVTIFYVDRLGYYPYIDSITGVTVNGGIPQKISLQDHLDKAKKDITFYMPVDNLGMAVIDWEEWRPTWARNWKPKDVYKNRSIELVQQQNVQLSLTEATEKAKQEFEKAGKDFLVETIKLGKLLRPNHLWGYYLFPDCYNHHYKKPGYNGSCFNVEIKRNDDLSWLWNESTALYPSIYLNTQQSPVAATLYVRNRVREAIRVSKIPDAKSPLPVFAYTRIVFTDQVLKFLSQDELVYTFGETVALGASGIVIWGTLSIMRSMKSCLLLDNYMETILNPYIINVTLAAKMCSQVLCQEQGVCIRKNWNSSDYLHLNPDNFAIQLEKGGKFTVRGKPTLEDLEQFSEKFYCSCYSTLSCKEKADVKDTDAVDVCIADGVCIDAFLKP
chain 2: LNFRAPPVIPNVPFLWAWNAPSEFCLGKFDEPLDMSLFSFIGSPRINATGQGVTIFYVDRLGYYPYIDSITGVTVNGGIPQKISLQDHLDKAKKDITFYMPVDNLGMAVIDWEEWRPTWARNWKPKDVYKNRSIELVQQQNVQLSLTEATEKAKQEFEKAGKDFLVETIKLGKLLRPNHLWGYYLFPDCYNHHYKKPGYNGSCFNVEIKRNDDLSWLWNESTALYPSIYLNTQQSPVAATLYVRNRVREAIRVSKIPDAKSPLPVFAYTRIVFTDQVLKFLSQDELVYTFGETVALGASGIVIWGTLSIMRSMKSCLLLDNYMETILNPYIINVTLAAKMCSQVLCQEQGVCIRKNWNSSDYLHLNPDNFAIQLEKGGKFTVRGKPTLEDLEQFSEKFYCSCYSTLSCKEKADVKDTDAVDVCIADGVCIDAFLKP
modifications: HuPH20 precursor 1-471; Mature HuPH20 36-471
B4: N254A: PH20sHis N-glycosylation site mutant N254A, SEQ ID NO:205 (protein)
chain: MGVLKFKHIFFRSFVKSSGVSQIVFTFLLIPCCLTLNFRAPPVIPNVPFLWAWNAPSEFCLGKFDEPLDMSLFSFIGSPRINATGQGVTIFYVDRLGYYPYIDSITGVTVNGGIPQKISLQDHLDKAKKDITFYMPVDNLGMAVIDWEEWRPTWARNWKPKDVYKNRSIELVQQQNVQLSLTEATEKAKQEFEKAGKDFLVETIKLGKLLRPNHLWGYYLFPDCYNHHYKKPGYNGSCFNVEIKRNDDLSWLWAESTALYPSIYLNTQQSPVAATLYVRNRVREAIRVSKIPDAKSPLPVFAYTRIVFTDQVLKFLSQDELVYTFGETVALGASGIVIWGTLSIMRSMKSCLLLDNYMETILNPYIINVTLAAKMCSQVLCQEQGVCIRKNWNSSDYLHLNPDNFAIQLEKGGKFTVRGKPTLEDLEQFSEKFYCSCYSTLSCKEKADVKDTDAVDVCIADGVCIDAFLKPPMETEEPQIFYNASPSTLSHHHHHH
modifications: His tag; PH20sHis N254A
B5: N82A/N166A: PH20sHis double mutant, SEQ ID NO:206 (protein)
chain: MGVLKFKHIFFRSFVKSSGVSQIVFTFLLIPCCLTLNFRAPPVIPNVPFLWAWNAPSEFCLGKFDEPLDMSLFSFIGSPRIAATGQGVTIFYVDRLGYYPYIDSITGVTVNGGIPQKISLQDHLDKAKKDITFYMPVDNLGMAVIDWEEWRPTWARNWKPKDVYKARSIELVQQQNVQLSLTEATEKAKQEFEKAGKDFLVETIKLGKLLRPNHLWGYYLFPDCYNHHYKKPGYNGSCFNVEIKRNDDLSWLWNESTALYPSIYLNTQQSPVAATLYVRNRVREAIRVSKIPDAKSPLPVFAYTRIVFTDQVLKFLSQDELVYTFGETVALGASGIVIWGTLSIMRSMKSCLLLDNYMETILNPYIINVTLAAKMCSQVLCQEQGVCIRKNWNSSDYLHLNPDNFAIQLEKGGKFTVRGKPTLEDLEQFSEKFYCSCYSTLSCKEKADVKDTDAVDVCIADGVCIDAFLKPPMETEEPQIFYNASPSTLSHHHHHH
modifications: His tag; PH20sHis N82A/N166A
B6: N82A/N254A: PH20sHis double mutant, SEQ ID NO:207 (protein)
chain: MGVLKFKHIFFRSFVKSSGVSQIVFTFLLIPCCLTLNFRAPPVIPNVPFLWAWNAPSEFCLGKFDEPLDMSLFSFIGSPRIAATGQGVTIFYVDRLGYYPYIDSITGVTVNGGIPQKISLQDHLDKAKKDITFYMPVDNLGMAVIDWEEWRPTWARNWKPKDVYKNRSIELVQQQNVQLSLTEATEKAKQEFEKAGKDFLVETIKLGKLLRPNHLWGYYLFPDCYNHHYKKPGYNGSCFNVEIKRNDDLSWLWAESTALYPSIYLNTQQSPVAATLYVRNRVREAIRVSKIPDAKSPLPVFAYTRIVFTDQVLKFLSQDELVYTFGETVALGASGIVIWGTLSIMRSMKSCLLLDNYMETILNPYIINVTLAAKMCSQVLCQEQGVCIRKNWNSSDYLHLNPDNFAIQLEKGGKFTVRGKPTLEDLEQFSEKFYCSCYSTLSCKEKADVKDTDAVDVCIADGVCIDAFLKPPMETEEPQIFYNASPSTLSHHHHHH
modifications: His tag; PH20sHis N82A/N254A

Key:
[1] = Microtiter hyaluronidase activity assay with biotinylated-hyaluronic acid; assay type: biochemical; settings: Table 6, 72 hour post transfection supernatant
[2] = tested on: CHO-S cells; test: Western blot analysis of PH20 expression in media and cells after transient expression; assay type: cell-based, Chinese Hamster; settings: media versus cells
In short: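 PH20 expression and solubility were judged by anti-PH20 Western blot of non-reduced media and cell fractions, with expression shown by a ~66 kDa band. Samples came from CHO-S cells transiently transfected (GeneJuice) with mutant PH20-HZ24 DNA and cultured 48-72 h. GPI-anchored mutants were cleaved with PI-PLC to release soluble protein.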

[3] = Hyaluronidase activity of N-glycan site specific deglycosylation mutants (biotinylated-HA assay); assay type: biochemical; settings: media of transfected CHO-S cells
Protocol: In short, a 4×BH 96-well plate was coated with biotinylated-HA (1.1 MDa). The 72 hour post transfection supernatant from cells transfected with human PH20 hyaluronidase carboxy-terminus deletion mutants was diluted in buffer at either pH 7.4 or pH 5.5 and added to individual wells of the plate and allowed to incubate at 37° C. for 90 minutes. The reaction was terminated by addition of 4M guanidine HCl. The wells were washed 4× with Phosphate Buffered Saline with Tween20 (PBST) to remove any digested biotinylated-HA followed by addition of streptavidin-HRP for 1 hour at room temperature. The wells were washed 4× with PBST and the plate was developed with TMB. The plate was read at 450 nm using an ELISA plate reader. Hyaluronidase activity (in Units/mL) was determined by interpolating the measured absorbance at 450 nm with a hyaluronidase reference standard curve. Full length mature human PH20 hyaluronidase and untransfected CHO cells were used as positive and negative controls.
PH20sHis (SEQ ID NO:210) was used as a template for mutagenesis of each asparagine residue to alanine using QuikChange® Site-Directed Mutagenesis Kit (Cat No. 200518, Stratagene). […] Six single mutants were generated, one for each of the N-glycosylation sites. Additionally, three double mutants and a triple mutant were generated for asparagines N82, N166 and N254, all of which are occupied by complex type glycans. Finally, a double mutant N368A/N393A was generated, lacking high mannose glycans. The mutants were transfected into CHO—S cells and expression was performed as described in Example 2A. Secretion into the media and hyaluronidase activity were determined as described in Examples 3 and 5, above.

Row | Molecule | pH 5.5 Activity [1] [Units/ml] | pH 7.4 Activity [1] [Units/ml] | Expressed in Media [2] | Activity pH 5.5 [3] | Activity pH 7.4 [3]
1 | B1 | 0.9 | 0.5445 | YES |  | 
2 | B2 | 0.9157 | 0.8595 | YES |  | 
3 | B3 | 2.79 | 3.321 | YES |  | 
4 | B4 |  |  |  | YES | YES
5 | B5 |  |  |  | YES | YES
6 | B6 |  |  |  | YES | YES
